# Key:
# human VEGF-121 (human) [1] = biological target: human VEGF-121 (human) (UniProt P15692); test: receptor competition assay: His-tagged human VEGF-121 (0.1 nM) on beads with 1 nM human VEGF Receptor 1 and varied Lucentis; bound receptor fraction by flow cytometry, dose-response inhibition fit; blocked partner: VEGF Receptor 1
# human VEGF-121 (human) [2] = biological target: human VEGF-121 (human) (UniProt P15692); test: receptor competition assay: His-tagged human VEGF-121 (0.1 nM) on beads with 1 nM human VEGF Receptor 2 and varied Lucentis; bound receptor fraction by flow cytometry, dose-response inhibition fit; blocked partner: VEGF Receptor 2
# human VEGF-121 (human) [3] = biological target: human VEGF-121 (human) (UniProt P15692); test: magnetic-bead partitioning binding assay read by flow cytometry; bound fraction against VEGF-121 concentration (1e-12 to about 1e-8 M), Langmuir one-site fit; how Lucentis was immobilised is not described
# Chain of human VEGF-121 (human) (P15692 other isoform, or with tags, fused parts or gaps limits assumed): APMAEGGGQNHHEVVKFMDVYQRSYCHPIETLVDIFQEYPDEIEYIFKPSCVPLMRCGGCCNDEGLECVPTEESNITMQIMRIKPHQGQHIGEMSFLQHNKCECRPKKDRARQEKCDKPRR
substance,measurement,setting,value
Lucentis® (Fab),IC50,human VEGF-121 (human) [1],5.58 nM
same,IC50,human VEGF-121 (human) [2],2.36 nM
same,Kd,human VEGF-121 (human) [3],1.69 nM
